From patent US20240376151A1, “STAPLED PEPTIDES AND METHODS THEREOF” (FOG PHARMACEUTICALS, INC., priority 2022, published 2024)

Biological target: T1, beta-catenin (Homo sapiens, UniProt P35222)
T1 construct: made in house; host or cells: E. coli BL21 (DE3) pLysS
T1 sequence (P35222 134-665): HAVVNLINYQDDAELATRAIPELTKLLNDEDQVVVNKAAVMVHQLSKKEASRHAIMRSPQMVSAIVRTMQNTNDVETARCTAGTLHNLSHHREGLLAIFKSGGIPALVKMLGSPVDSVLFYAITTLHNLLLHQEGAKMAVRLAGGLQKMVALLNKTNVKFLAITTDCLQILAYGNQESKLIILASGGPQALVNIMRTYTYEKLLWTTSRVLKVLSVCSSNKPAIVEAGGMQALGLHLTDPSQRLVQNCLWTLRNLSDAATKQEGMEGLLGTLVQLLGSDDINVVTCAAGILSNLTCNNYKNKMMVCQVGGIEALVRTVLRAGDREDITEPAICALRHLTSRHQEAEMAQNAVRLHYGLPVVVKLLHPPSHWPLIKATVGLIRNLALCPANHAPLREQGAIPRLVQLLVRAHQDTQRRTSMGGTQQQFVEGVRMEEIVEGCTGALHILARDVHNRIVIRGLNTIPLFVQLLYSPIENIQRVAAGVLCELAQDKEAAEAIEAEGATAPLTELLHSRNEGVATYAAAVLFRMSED
Assay: Phage Library Screening with NGS, beta-catenin
Assay type: binding
Conditions: for Target Concentration 10 (phage screen NGS readout): beta-catenin target concentration 10; for Target Concentration 10 (phage screen NGS readout) / Target Concentration 30 (phage screen NGS readout) / Target Concentration 100 (phage screen NGS readout) / Target Concentration 300 (phage screen NGS readout): no competitor; for Target Concentration 30 (phage screen NGS readout): beta-catenin target concentration 30; for Target Concentration 100 (phage screen NGS readout): beta-catenin target concentration 100; for Target Concentration 300 (phage screen NGS readout): beta-catenin target concentration 300; for Target Concentration 1000 (phage screen NGS readout): beta-catenin target concentration 1000

| Sequence | Target Concentration BLANK (phage screen NGS readout) (first column) | Target Concentration BLANK (phage screen NGS readout) (fourth column) | Target Concentration BLANK (phage screen NGS readout) (second column) | Target Concentration BLANK (phage screen NGS readout) (third column) | Target Concentration 10 (phage screen NGS readout) | Target Concentration 30 (phage screen NGS readout) | Target Concentration 100 (phage screen NGS readout) | Target Concentration 300 (phage screen NGS readout) | Target Concentration 1000 (phage screen NGS readout) (first 1000 column) | Target Concentration 1000 (phage screen NGS readout) (second 1000 column) |
| --- | --- | --- | --- | --- | --- | --- | --- | --- | --- | --- |
| DPAQQDCTLAAHVCRVF | 0 | 0 | 0 | 0 | 0 | 0 | 19 | 21 | 70 | 11 |
| DPAQSDCDWAAEHCNLI | 0 | 0 | 0 | 0 | 0 | 1 | 0 | 23 | 9 | 57 |
| DPAQWACEHAALLCSMD | 0 | 0 | 1 | 0 | 6 | 35 | 226 | 419 | 326 | 432 |
| DPARHECILAAHICEWE | 1 | 0 | 2 | 2 | 41 | 151 | 612 | 1704 | 1683 | 1509 |
| DPARMTCYEAAFRCQYY | 0 | 0 | 0 | 0 | 0 | 2 | 2 | 3 | 11 | 9 |
| DPASWDCDHAALLCTLD | 0 | 1 | 0 | 0 | 3 | 6 | 86 | 257 | 283 | 238 |
| DPASWRCEHAALNCQID | 0 | 0 | 0 | 0 | 0 | 6 | 20 | 18 | 21 | 57 |
| DPATIRCYEAAFMCQYW | 0 | 0 | 0 | 0 | 0 | 0 | 3 | 34 | 21 | 38 |
| DPATWHCDWAAEHCELL | 0 | 0 | 0 | 0 | 2 | 10 | 81 | 147 | 203 | 280 |
| DPAVDECIIAAHICHIW | 0 | 0 | 0 | 0 | 0 | 4 | 21 | 44 | 31 | 66 |
| DPAVEDCVLAAHVCAWF | 0 | 0 | 0 | 0 | 0 | 2 | 47 | 39 | 49 | 73 |
| DPAVFECSLAAIDCLQI | 0 | 0 | 0 | 0 | 0 | 0 | 10 | 28 | 10 | 81 |
| DPAVFMCYEAAFECQYF | 0 | 0 | 2 | 1 | 0 | 0 | 0 | 1 | 2 | 7 |
| DPAVHRCFWAAEHCDLI | 0 | 0 | 2 | 0 | 0 | 2 | 11 | 86 | 95 | 62 |
| DPAVIACYDAAFVCEYF | 0 | 0 | 1 | 0 | 0 | 0 | 0 | 0 | 3 | 3 |
| DPAVIQCYQAAFHCDYQ | 0 | 0 | 0 | 3 | 0 | 0 | 0 | 13 | 12 | 30 |
| DPAVLDCHIAALDCHAH | 0 | 0 | 0 | 0 | 0 | 1 | 0 | 10 | 39 | 3 |
| DPAVLECHIAAWECNHT | 0 | 0 | 0 | 0 | 0 | 1 | 22 | 67 | 140 | 55 |
| DPAVLECHIAAWECRMD | 0 | 0 | 0 | 0 | 0 | 0 | 24 | 83 | 91 | 45 |
